Laboratory results reported in the supplement of paper PMC9170038.

system: MS2 coat protein; assay: apparent KD of MS2 coat protein; higher = weaker reporter binding; settings: Eterna round: R107; input ligand: theophylline 20 uM
Procedure, shortened: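 Designed RNA switches, transcribed on-chip from Illumina sequencing clusters, were titrated with SNAP-549-labelled MS2 coat protein from 0.7 or 1.5 nM to 3 µM in twofold steps. The solution was 100 mM Tris-HCl pH 7.5, 80 mM KCl, 4 mM MgCl2, with constant ligand or without it. Apparent KD is the median over each design's normalised cluster binding-curve fits.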

Sequence	apparent KD of MS2 coat protein
GAGUCCGCGGCGGCCGCCACUCGCGGCGCCACAUGGCGCCGGGACAUGAGGAUCACCCAUGUCCCGAGGACCGGGCCGAUCCUCA [Same State Typrtophan B GF4]	35.6 nM
GGGUAUGAUCCGGAUACCAGCGAACAUGAGGAUCACCCAUGUGACCUAAGAUAGGCUCUACGCCCUUGGCAGCCGCGAUCGCAGA [Same State Theophylline B GF9]	23.2 nM
AUGCAUAUCAGAAGGAGCGUCUUUAACAUGAGGAUCACCCAUGUAACAUUGAAUUCGAUGAGACAGGUAGGUCGCUGAAUAGUAA [SS-ArgB24]	39.3 nM
ACCUGUACGAAAAGUGCAGGACACGGAAUACGAGGACCGGUACGGCCGCCACUCGGAUAAAACCUGAGGAUCACCCUGGUCCGUG [TrypAS 14 #AlternativeMS2 #Zipper #StaticStem]	43.5 nM
CUGUACAUCUCGGCCGCCACUGCAACAUGUACACAUGGACAUGUACAUGAGGAUCACCCAUGUGGCAGGACCGGGAGGUGUGCAG [SSTryp B #28]	211 nM
AGUCUAUGAAGAGAUACCAGUGAGAGACAUAGACAUGAGGAUCACCCAUGUGACAUGAAGCACCCUUGGCAGCUCAACGAGCUCA [Theo B SS t1]	50 nM
GAUUGGUAUAGAAGGAGCGUCGAAAAUGGGUAAACAUGAGGAUCACCCAUGUAAAGGGAACGACAGGUAGGUCGCUAUAUUAAUC [AstromonsSSArgB#30]	256 nM
UUCCACCUAAAGCGUUGCCCUCGUGAUGAUACCAGUUUCAGCGGUAACCCUUGGCAGCAUCGGACAUGAGGAUCACCCAUGUGGA [theeternabot_exclusion_MS2_Theo_A_47]	136 nM
AUUGUGAAGUCGGCCGCCACUGCAUAGUUUAACCUCUUUUAACAUGAGGAUCACCCAUGUAAUGACAGGACCGGGACAAUAGUAA [JR_SSTryptoB_Sub022]	92.3 nM
CAGAACAUGAGGAUCACCCAUGUUAGGGAUACCAGCUCAGACAUGGGCCCUUGGCAGCUCUAUGGCUGACGAAAGUCAGCAUCUG [#16 SameState-TheophyllineA]	874 nM
GGACAACAUGAGGAUCACCCAUGUCCUGAUACCAGUCAGCGCAGUGACCCUUGGCAGCAGACGGAUACGAAAUAACUGAGAGAUA [theeternabot_sameState_MS2_Theo_A_44]	65 nM
ACAUGAGGAUCACCCAUGUGAAGGCACGAUACCAGCUGAUCCCGUGGCCCUUGGCAGCGUCCGGUUUGGUCCGGCGGAUGAGACG [azamullin]	36.4 nM
AAGCCCAGGACGGCCGCCACUGUAAAAUGGUGGUUCGCCUGUAAGAACAUGAGGAUCACCCAUGUCAGGACCGGGUCCACGAGUU [theeternabot_exclusion_MS2_Trp_B_46]	23.8 nM
UUAGUAACGACGGCCGCCACUGAAUUUGAACAUGAGGAUCACCCAUGUAGAGAUCCUAGAAUAAACAGGACCGGGUCUGAUAAUG [Exclusion Tryptophane B GF3]	139 nM
GGAUAGGACAGAAGGAGCGGCAUGGCAGAAACUGCAAUCCUCCUACACGAGGAUCACCCGUGUCAGGUAGGUCGCUGUCCUAUCG [ArgXB 13 #Zipper #MS2Left #StaticStem #Blueprint]	20.4 nM
GGUGUAUCCAUCGAUACCAGCCACCACCGAUAGACCACAUGAGGAUCACCCAUGUUGGGUGGCCCUUGGCAGCGGUGGCUGUGCC [Same State - Theophylline B Attempt #3 (HarryS)]	592 nM
ACAUGAGGAUCACCCAUGUAUUACCGGGAAGGAGCGCGUAAGGACGCAGGUAGGUCGCUCGGCGUCGUGCCGGAAGGCACGACGA [#1 Same State - Arginine A Attempt #22 (HarryS)]	49.8 nM
GUCCGCAGCCGAAGGAGCGCUAGAAGGUGACAUGAGGAUCACCCAUGUGUGUGAUGUGGCUAGCAGGUAGGUCGCGGAGCGGAUU [Exclusion - Arginine B (Freestyle 18)]	110 nM
GAUAGUUGAAGGGAUACCAGCCUGGACAUGAGGAUCACCCAUGUAGCAUGUUUGAAACUGGGCCCUUGGCAGCCCAUAUUGUGUA [#11 Same State - Theophylline B]	25.4 nM

same assay, conditions: Eterna round: R107; input ligand: theophylline 2 mM

Sequence	apparent KD of MS2 coat protein
UUGGGUUUGUGAAGGAGCGGGUAUGUUUUCUAGUGGAUCCUAACAUGAGGAUCACCCAUGUCCCAGGUAGGUCGCGCGGGUUUGG [12.U]	99.8 nM
UGCCGAGACGUGGAUUACCCAUGUACAGAAGGAGCGCCCGAAAGGGCAGGUAGGUCGCUGAGGACAUGAGGAUCACCCAUGUCGA	49.5 nM
UGUCAGCGAAAGUUGACAUGUCUUACCGGUCGAGGACCGGUACGGCCGCCACUCGAUCACUCGCACAUGAGGAUCACCCAUGUCG [SS Tryp A #20]	13.9 nM
ACGUAUGUCAGAAGGAGCGUCAAUAACAUGAGGAUCACCCAUGUAUUACAUAGGUAUAAUAGACAGGUAGGUCGCUGAAUUCGAA [JR_SSArginiB_Sub022]	31.2 nM
GCUACAUGAGGAUCACCCAUGUGUACUGAAGGAGCGGCGGAAACGCCAGGUAGGUCGCAGUAUGUGGCUCUGGGCACGAGAUGGC [SSAA NP+V+V2 #1]	35.9 nM
AUGGUAAGAACAUGAGGAUCACCCAUGUGACGAGGACCGGUACGGCCGCCACUCGUACCUUAGUCGUCGAACAGAGGAUUCAUGU [Trypt A-MS2@10]	125 nM
ACGUCAUGGAGAACGUGACGACUUGUCGAUACCAGUGUUUGAUAGCGCCCUUGGCAGCGAACAUGAGGAUCACCCAUGUCAAGGG [#11 SameState-TheophyllineA]	88.9 nM
GAGACAUCGGGAAGGAGCGCAUCCAAACCACACAUGAGGAUCACCCAUGUAUAAAUAUGCAUGCAGGUAGGUCGCCCGGUAUCCC [Tiisqure]	35 nM
CCUAUGCAGUCGGCCGCCACUGAGUCCUCAAUAAUAAAUUAUUAUACAUGAGGAUCACCCAUGUACAGGACCGGGACUGUAUAGG [Ex Tryptophan B 14]	237 nM
CACGAAAGAUCGGCCGCCACUAGCCUGUGUGUACUAGCACAUGAGGAUCACCCAUGUUCUUGCGUUAGGACCGGGAUUGAGCGUG [#05 Exclusion Tryptophan B]	33.9 nM
CAGUCAGUCAGUCAAUGAGUGAGGCAUGAAGGAGCGUGGGAAACCACAGGUAGGUCGCAUGCGAAACAUGAGGAUCACCCAUGUU [SSArg A #3]	51.9 nM
GACGCAUGAGUUGUAAAAGCUCAUGGGUCGCGAGGACCGGUACGGCCGCCACUCGGCUGUACAUGAGGAUCACCCAUGUCAGGGU [#1 Same State - Tryptophan A Attempt #28 (HarryS)]	886 nM
UUAAUCUUGGUUGAAAACAAUUAAGCAGAAGGAGCGUGAUAAAACACAGGUAGGUCGCUGAAGGGAACAUGAGGAUCACCCAUGU [AstrosSSArgA#14]	31.6 nM
UGGAUAAGGGUAAAUAGGAUAAGUACAGAAGGAGCGCGAAUAAACGCAGGUAGGUCGCUGGACAUGAGGAUCACCCAUGUAAAUG [Same State Arginine A GF 22]	57.6 nM
ACGACGGCUGCGGCCGCCACUGUACAUGAGGAUCACCCAUGUGUAGUAAUUGGGACCCUGUGUUACAGGACCGGGUAGUUGAUUA [Orquteer]	47.1 nM
GAGUCCGCGGCGGCCGCCACUCGCGGCGCCACAUGGCGCCGGGACAUGAGGAUCACCCAUGUCCCGAGGACCGGGCCGAUCCUCA [Same State Typrtophan B GF4]	33.9 nM
GGGUAUGAUCCGGAUACCAGCGAACAUGAGGAUCACCCAUGUGACCUAAGAUAGGCUCUACGCCCUUGGCAGCCGCGAUCGCAGA [Same State Theophylline B GF9]	13.3 nM
AUGCAUAUCAGAAGGAGCGUCUUUAACAUGAGGAUCACCCAUGUAACAUUGAAUUCGAUGAGACAGGUAGGUCGCUGAAUAGUAA [SS-ArgB24]	32.8 nM
ACCUGUACGAAAAGUGCAGGACACGGAAUACGAGGACCGGUACGGCCGCCACUCGGAUAAAACCUGAGGAUCACCCUGGUCCGUG [TrypAS 14 #AlternativeMS2 #Zipper #StaticStem]	34.6 nM
